Earlier results, collected in paper PMC4920389.

Molecular target: Glu23 (UniProt position 23, FAVDEENKIGQ)
Experiment: stability
Settings: native (folded) state

**Q.** For “MNEI (single-chain monellin) (Dioscoreophyllum cumminsii)”, which pKa is on record?
**A.** approximately 7.5
